This note sets out measurements from article PMC10465003, “The AAA-ATPase Yta4/ATAD1 interacts with the mitochondrial divisome to inhibit mitochondrial fission” (PLOS Biology, 2023).

Changes are numbered by the printed parent chain. In names and notes the source's numbering stands.

T1: GST-Mdv1(a.a. 1–249) (Schizosaccharomyces pombe (strain 972 / …, UniProt Q9P7I3))
T1 chain: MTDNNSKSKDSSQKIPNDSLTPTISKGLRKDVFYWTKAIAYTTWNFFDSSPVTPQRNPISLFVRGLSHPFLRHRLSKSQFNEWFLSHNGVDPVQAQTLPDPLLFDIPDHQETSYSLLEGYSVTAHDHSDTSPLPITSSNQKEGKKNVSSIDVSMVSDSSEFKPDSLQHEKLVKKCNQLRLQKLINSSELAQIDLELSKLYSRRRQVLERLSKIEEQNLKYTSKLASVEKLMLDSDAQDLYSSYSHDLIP

T2: GST-Mdv1(a.a. 1–249) (Schizosaccharomyces pombe, UniProt Q9P7I3 1-249)
T2 construct: Mdv1, S. pombe, residues 1-249, the N-terminus; also called GST-Mdv1(NT); not shown: GST, N-terminal, kept
T2 sequence (looked up): T1 chain

T3: Dnm1(G380D) (Schizosaccharomyces pombe, UniProt Q09748 1-781, G380D)
T3 construct: Dnm1, fission yeast dynamin-related GTPase, with G380D (corresponds to G385D of S. cerevisiae Dnm1); Removal of His-sumo is stated for His-sumo-Dnm1 only; also called assembly-defective mutant of Dnm1; source: E. coli Rosseta, expressed as His-sumo-Dnm1(G380D), purified (Ni-NTA)
T3 sequence (looked up): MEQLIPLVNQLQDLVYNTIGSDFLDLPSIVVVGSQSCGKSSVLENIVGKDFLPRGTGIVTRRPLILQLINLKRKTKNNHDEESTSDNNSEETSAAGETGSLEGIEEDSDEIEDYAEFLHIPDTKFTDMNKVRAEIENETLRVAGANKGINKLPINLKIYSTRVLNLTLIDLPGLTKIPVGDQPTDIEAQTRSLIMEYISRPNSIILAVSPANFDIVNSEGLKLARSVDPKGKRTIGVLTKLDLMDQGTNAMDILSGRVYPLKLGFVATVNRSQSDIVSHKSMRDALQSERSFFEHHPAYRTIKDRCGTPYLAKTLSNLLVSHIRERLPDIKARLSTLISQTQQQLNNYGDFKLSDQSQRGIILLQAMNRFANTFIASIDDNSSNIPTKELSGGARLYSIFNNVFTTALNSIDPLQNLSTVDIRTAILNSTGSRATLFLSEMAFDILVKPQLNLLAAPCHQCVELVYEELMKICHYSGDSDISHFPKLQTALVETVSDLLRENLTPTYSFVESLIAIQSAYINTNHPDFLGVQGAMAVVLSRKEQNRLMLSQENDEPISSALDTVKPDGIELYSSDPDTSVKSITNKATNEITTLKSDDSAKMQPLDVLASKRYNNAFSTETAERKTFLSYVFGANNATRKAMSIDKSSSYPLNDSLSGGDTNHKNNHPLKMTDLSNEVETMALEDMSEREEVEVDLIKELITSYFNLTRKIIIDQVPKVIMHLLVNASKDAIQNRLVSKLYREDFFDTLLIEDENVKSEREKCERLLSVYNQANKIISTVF

B1: His-Fis1(1–128) (domain or fragment, Schizosaccharomyces pombe, UniProt Q9USZ8 1-128, looked up)
chain: MTEKHTLRLADPSAIDSIISVDEFLQIKEQYDAEQPLITLQTKFNLAWALVRSDSTQHVQQGLSLFCSIYKDSPERRLECLYYIALSHYKLKQYEESRRYLNMLLSKDPNSPEALKLKNRLYDAVTKE
notes: also called His-Fis1(∆TM); Fis1(∆TM); source: E. coli BL21, purified (Ni-NTA, size-exclusion chromatography); not shown: His tag, N-terminal, kept
B2: Dnm1 (enzyme, Schizosaccharomyces pombe, UniProt Q09748 1-781, looked up)
chain: T3 sequence (looked up) with D380G
notes: Dnm1, fission yeast dynamin-related GTPase; also called Dnm1(WT); recombinant Dnm1; source: E. coli Rosseta, purified (Ni-NTA, sumo protease, size-exclusion chromatography); not shown: His-sumo, N-terminal, cleaved
B3: Dnm1 (Schizosaccharomyces pombe 972h-; G380D) (protein)
chain: T3 sequence (looked up)
notes: Dnm1 expressed as His-sumo-Dnm1 in E. coli Rosetta; His-sumo tag removed by sumo protease; Ni-NTA and SEC; forms heterogeneous oligomers
B4: GST-Mdv1(319–651) (domain or fragment, Schizosaccharomyces pombe, UniProt Q9P7I3 319-651, looked up)
chain: YIVGNLVKQFQAHSEYITSLDFSHPFGTLATASTDKTVKVWDMAGVVYLGSLKGHSDYVSCLAIQDSFIATGSMDTTVRLWNLDNDVLHKDNPVEESLNSPPDQPVDNATNVLTSHTAPVTALALSSDDVLITGADDKTVRQWDIVTGRCIQTLDFVWAETHDTSTSQILVSDTYKQEPFIRALDCLDAAVASGTVDGLIRIWDLRIGLPVRSFIGHTAPISSLQFDSNHLYSGSYDNSVRIWDLRSGSPINIIPMEKKVNSLRLYQGRLAVASDEPNVRIFDTVSNRNWICSIPSHSDSIAAEPNSVPTSVQYKDRFLVDGKSDGSVSVFSA
notes: also called GST-Mdv1(WD); Mdv1(WD); source: E. coli BL21, purified (Glutathione Sepharose 4B resins); not shown: GST, N-terminal, kept

Data set [1] has as its target Hcp1-Yta4(a.a. 35–355) (not stated | Schizosaccharomyces pombe). The data set is described as follows: SEC + cross-linking; Superdex 200 Increase 10/300 GL in hypersaline buffer (500 mM NaCl, 500 mM KCl, 1 mM ATP, pH 7.5); EGS 4 mM, 300 ng/μL protein, 30 min at room temperature, SDS-PAGE with silver staining.
In data set [2] the target is B2.
Data set [3] addresses GST-Mdv1(319–651) (Schizosaccharomyces pombe) (UniProt Q9P7I3). The data set can be described thus: pull-down; competitive binding: GST-Mdv1(a.a. 319–651) on glutathione resins incubated with Dnm1 or Dnm1(G380D), with or without His-Yta4(a.a 33–355); band intensities quantified.
Data set [4] concerns the target Hcp1-Msp1(a.a. 36–362) (not stated | budding yeast (Saccharomyces cerevisiae)) (UniProt P28737). The data set can be described thus: SEC + cross-linking; Superdex 200 Increase 10/300 GL in hypersaline buffer (500 mM NaCl, 500 mM KCl, 1 mM ATP, pH 7.5); EGS 4 mM, 300 ng/μL protein, 30 min at room temperature, SDS-PAGE with silver staining.
The target of data set [5] is T1, GST-Mdv1(a.a. 1–249). The data set is described as follows: GST pull-down.
The target of data set [6] is T2, GST-Mdv1(a.a. 1–249). The data set can be described thus: pull-down; competitive binding: GST-Mdv1(a.a. 1–249) on glutathione resins incubated with His-Fis1(a.a. 1–128), with or without His-Yta4(a.a 33–355) (Mdv1 to Yta4 1:1, 1:5, 1:10). The note with it: both partners purified.
Substrate in data set [7]: Nc1nc2c(ncn2[C@@H]2O[C@H](COP(=O)(O)OP(=O)(O)OP(=O)(O)O)[C@@H](O)[C@H]2O)c(=O)[nH]1
The data set is described as follows: malachite green phosphate release, Michaelis-Menten fit. The conditions noted are these: pH 7.5, 37°C. It is filed as biochemical, Schizosaccharomyces pombe.

Data set [8] deals with the molecule itself. The data set is described as follows: co-sedimentation; velocity sedimentation: 2 μM Dnm1 with 0, 5, 50 or 100 μM GMP-PCP, with or without 40 μM His-Yta4; 20 min at 37°C, 10,000 g 15 min at 4°C; supernatant and pellet on SDS-PAGE.
Data set [9] deals with T3, Dnm1(G380D). The data set is described as follows: pull-down; competitive binding: GST-Mdv1(a.a. 319–651) on glutathione resins incubated with Dnm1 or Dnm1(G380D), with or without His-Yta4(a.a 33–355); band intensities quantified. The note with it: both partners purified.
For data set [10], the target named is B2. Described as above. The conditions noted are these: both partners purified.

By stoichiometry N is commonly meant the number of molecules, sites or subunits per partner or assembly. For Hcp1-Yta4(a.a. 35–355), in [1], the stoichiometry N amounted to 6.
Take “His-Yta4(a.a. 33–355) (domain or fragment)”: the Km for GTP of the GTPase activity of 0.5 μM Dnm1 (colorimetric assay, 37°C) with 5 μM and 10 μM His-Yta4(∆TM), fold increase over Dnm1 alone; Vmax not significantly affected in data set [2] was 6 fold. This molecule also yielded a Dnm1 left on GST-Mdv1(WD) with His-Yta4(∆TM), percent of the level without it in data set [3] of 40%.
In the case of “Hcp1-Msp1(a.a. 36–362) (from UniProt P28737 36-362)”, the stoichiometry N in [4] was 6.
As to B1, the binding result in [5] and in [6] was “binds” in each case.
Usually Km stands for the concentration of substrate that gives half-maximal velocity. Turning to B2, in data set [7] (0.5 μM Dnm1 alone, Mg2+), the Km turned out to be 193.80 µM. Besides, the binding result in data set [8] was “binds”.
In the case of B3, in data set [7] (assembly-defective mutant, 0.5 μM, without Yta4, Mg2+), the Km was 85.00 µM.
Consider B4, for which the binding result in data set [9] and in data set [10] was “binds” each time.
